Measurements from patent US11058644 (WISCONSIN ALUMNI RESEARCH FOUNDATION, dated 2021).

Target: T1, epidermal growth factor receptor (EGFR) (UniProt P00533 25-1210, limits assumed)
T1 construct: whole, on cells; Endogenous receptor on MDA-MB-468 cells
Experiment: blocking of Cy5-NP uptake on MDA-MB-468 cells by 2 uM free GE11, fluorescence microscopy
Method: Cellular Uptake. The cellular uptake behaviors of the NPs in MDA-MB-468 TNBC cell lines were analyzed using a fluorescence microscope based on the Cy5 dye conjugated on the NPs. Cells were seeded (1×10^5 cells/ml) onto 8-well high-optical-quality plates and grown overnight. Cells were treated with either non-targeted NPs, targeted NPs, or targeted NPs with free GE11 peptide (2 µM; blocking assay) at an NP concentration of 100 µg/ml. After 2 h incubation, cells were washed with PBS twice, fixed with 4% PFA, and stained with DAPI for 4 h. Then the cells were mounted with Prolong Gold anti-fade reagent. The cellular uptake was observed using a fluorescence microscope (Nikon, Melville, N.Y.). Digital monochromatic images were acquired using NIS-Elements BR Software.
In Vitro Cellular Uptake. EGFR is overexpressed in many common types of cancer. Here, an EGFR targeting peptide, GE11, was used as an active-tumor-targeting ligand to enhance cellular uptake. MDA-MB-468, a TNBC cell line that overexpresses EGFR, was used as the model cell line. Cells were incubated with either non-targeted (i.e., NPs without GE11 conjugation) or targeted (i.e., GE11 conjugated) NPs for 2 h. Cells without any treatment were used as a negative control. Cy5 was conjugated onto the NPs. Fluorescence imaging analysis was performed to compare cellular uptake. […]

B1: GE11 peptide (YHWYGYTPQNVIGGGGC) (peptide)
peptide: YHWYGYTPQNVIGGGGC
notes: also called free GE11; EGFR targeting peptide
binding result: binds
